Source: publication PMC4357710, “TEFM is a potent stimulator of mitochondrial transcription elongation in vitro” (Nucleic Acids Research, 2015)

B1: elongation-like DNA:RNA template (18-mer DNA / 12-mer RNA) (DNA:RNA)
DNA: GGGAATGCATGGCGCGGC
RNA: UUUUGCCGCGCC
B2: human TEFM (mitochondrial transcription elongation factor), residues 36-360 (natural protein, UniProt Q96QE5 36-360, looked up)
chain: KSTTPKKITPNVTFCDENAKEPENALDKLFSSEQQASILHVLNTASTKELEAFRLLRGRRSINIVEHRENFGPFQNLESLMNVPLFKYKSTVQVCNSILCPKTGREKRKSPENRFLRKLLKPDIERERLKAVNSIISIVFGTRRIAWAHLDRKLTVLDWQQSDRWSLMRGIYSSSVYLEEISSIISKMPKADFYVLEKTGLSIQNSSLFPILLHFHIMEAMLYALLNKTFAQDGQHQVLSMNRNAVGKHFELMIGDSRTSGKELVKQFLFDSILKADPRVFFPSDKIVHYRQMFLSTELQRVEELYDSLLQAIAFYELAVFDSQP
modifications: amine-labeled with NT-547 dye (only in the MST with POLRMT)
notes: human TEFM, UniProt Q96QE5, residues 36-360; lacks the predicted mitochondrial targeting signal; The gel filtration used unlabelled protein; the MST used NT-547-labelled protein; also called recombinant TEFM; recombinant human TEFM; source: KRX cells (Promega), purified (Ni-IMAC, TEV cleavage, HiTrap Heparin, Sephacryl S-200 gel filtration); not shown: His6, N-terminal, cleaved

Key:
POLRMT;TEFM = POLRMT;TEFM (Homo sapiens;Homo sapiens, UniProt O00411;Q96QE5 42-1230;36-360, |); assay: MST; POLRMT titrated with 2000 nM TEFM; 500 uM ATP (one nt incorporation, paused), 10 mM Mg2+; MST: 25 mM Tris-HCl pH 8.0, 100 mM NaCl, 10 mM MgCl2, 10% glycerol, 1 mM DTT, 500 uM ATP, 0.05% Tween-20, 15 nM template, 22 C; footprinting: 25 mM Tris-HCl pH; conditions: protein: recombinant;recombinant; copies: 1;2; label: 5' Alexa488 on DNA; 8 bp DNA:RNA hybrid; DNA 5' overhang 10 nt; RNA 5' overhang 4 nt (UUUU)
POLRMT = POLRMT (Homo sapiens, UniProt O00411 42-1230); assay: MST; 500 uM ATP (one nt incorporation, paused), 10 mM Mg2+, no TEFM; MST: 25 mM Tris-HCl pH 8.0, 100 mM NaCl, 10 mM MgCl2, 10% glycerol, 1 mM DTT, 500 uM ATP, 0.05% Tween-20, 15 nM template, 22 C; footprinting: 25 mM Tris-HCl pH; conditions: protein: recombinant; label: 5' Alexa488 on DNA; 8 bp DNA:RNA hybrid; DNA 5' overhang 10 nt; RNA 5' overhang 4 nt (UUUU)
[1] = target: the molecule itself; assay: SEC; analytic gel filtration of recombinant TEFM; apparent molecular weight 82 kDa against 37.6 kDa for the chain

POLRMT;TEFM, sequence (O00411 42-1230, chain 1 of 2, one chain of several): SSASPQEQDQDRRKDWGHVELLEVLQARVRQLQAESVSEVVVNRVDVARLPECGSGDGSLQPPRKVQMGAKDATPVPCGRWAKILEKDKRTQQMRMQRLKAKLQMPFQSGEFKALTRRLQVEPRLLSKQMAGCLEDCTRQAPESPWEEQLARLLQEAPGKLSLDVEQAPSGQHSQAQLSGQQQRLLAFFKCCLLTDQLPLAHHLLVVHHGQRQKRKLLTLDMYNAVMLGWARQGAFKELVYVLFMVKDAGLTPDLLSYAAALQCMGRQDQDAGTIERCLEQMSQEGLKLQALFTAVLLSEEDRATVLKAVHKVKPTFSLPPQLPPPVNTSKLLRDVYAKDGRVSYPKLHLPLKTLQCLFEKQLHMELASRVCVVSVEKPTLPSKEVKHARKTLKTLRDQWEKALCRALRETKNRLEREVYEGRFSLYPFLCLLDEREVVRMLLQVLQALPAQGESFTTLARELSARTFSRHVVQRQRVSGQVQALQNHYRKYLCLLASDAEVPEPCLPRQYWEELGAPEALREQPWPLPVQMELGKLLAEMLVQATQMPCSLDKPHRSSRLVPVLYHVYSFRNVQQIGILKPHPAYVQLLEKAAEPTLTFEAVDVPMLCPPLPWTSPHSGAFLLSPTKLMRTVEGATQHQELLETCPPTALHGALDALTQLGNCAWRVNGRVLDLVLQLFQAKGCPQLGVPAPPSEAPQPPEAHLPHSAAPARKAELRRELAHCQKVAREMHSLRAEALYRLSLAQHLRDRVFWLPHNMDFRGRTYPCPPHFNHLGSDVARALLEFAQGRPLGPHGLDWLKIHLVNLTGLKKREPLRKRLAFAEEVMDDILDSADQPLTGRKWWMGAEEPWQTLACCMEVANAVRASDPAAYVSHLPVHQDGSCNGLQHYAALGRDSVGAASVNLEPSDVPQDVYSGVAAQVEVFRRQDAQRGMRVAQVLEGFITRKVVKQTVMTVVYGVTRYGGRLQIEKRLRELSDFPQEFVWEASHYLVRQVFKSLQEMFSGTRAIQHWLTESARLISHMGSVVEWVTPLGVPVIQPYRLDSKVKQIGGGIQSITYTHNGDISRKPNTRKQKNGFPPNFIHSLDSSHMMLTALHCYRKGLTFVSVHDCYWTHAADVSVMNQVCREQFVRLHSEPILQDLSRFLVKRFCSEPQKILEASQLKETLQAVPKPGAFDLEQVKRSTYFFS
POLRMT, sequence (O00411 42-1230): as the sequence (O00411 42-1230, chain 1 of 2, one chain of several) above

Row | Binder | Kd (POLRMT;TEFM) [nM] | Kd (POLRMT) [nM] | stoichiometry N [1]
1 | B1 | 11.2 ± 1 | 47.8 ± 2.88 | 
2 | B2 |  |  | 2
